From article PMC8809517, “Cofactor-independent RNA editing by a synthetic S-type PPR protein”
Substitutions are numbered along the chain they refer to.

B1: Cy5-rpoA (ssRNA)
RNA: AUUACACGUGA
B2: Cy5-rpoA-G (ssRNA)
RNA: AUUAGACGUGA
B3: IR-rpoA-A (ssRNA)
RNA: AUUAAACGUGA
B4: IR-rpoA-U (ssRNA)
RNA: AUUAUACGUGA

Key:
Test in all cases: high-throughput RNA pulldown from lysate on Ni-NTA beads; HRP: 50 mM Tris pH 8, 150 mM NaCl, 1 mM beta-mercaptoethanol, 50 ug/ml BSA, 3 ug/ml yeast RNA, 0.5% heparin; ITC and FP: Tris pH 8, 200 mM KCl, 5% glycerol; MST: 50 mM Tris pH 8, 200 mM NaCl, 1 mM DTT, BSA, heparin, 0.05% Tween 20
Conditions in all cases: tags: N-terminal His-eGFP
[1] = molecular target: T1, GFP-9S library array, motif 4 ND N98I;D124W (synthetic construct, N98I;D124W)
T1 chain: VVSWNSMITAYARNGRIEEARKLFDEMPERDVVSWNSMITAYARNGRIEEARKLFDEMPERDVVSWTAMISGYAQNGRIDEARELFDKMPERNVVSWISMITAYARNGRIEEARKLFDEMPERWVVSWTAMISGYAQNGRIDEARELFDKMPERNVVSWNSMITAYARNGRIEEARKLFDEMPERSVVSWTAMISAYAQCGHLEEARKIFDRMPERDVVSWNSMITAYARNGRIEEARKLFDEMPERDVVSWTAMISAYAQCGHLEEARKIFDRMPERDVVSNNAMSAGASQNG

[2] = molecular target: T2, GFP-9S library array, motif 4 ND N98V;D124I (synthetic construct, N98V;D124I)
T2 chain: T1 chain with I98V, W124I

[3] = molecular target: T3, GFP-9S library array, motif 4 ND N98D;D124T (synthetic construct, N98D;D124T)
T3 chain: T1 chain with I98D, W124T

[4] = molecular target: T4, GFP-9S library array, motif 4 ND N98Q;D124I (synthetic construct, N98Q;D124I)
T4 chain: T1 chain with I98Q, W124I

[5] = molecular target: T5, GFP-9S library array, motif 4 ND N98Y;D124Q (synthetic construct, N98Y;D124Q)
T5 chain: T1 chain with I98Y, W124Q

Binder	Kd ([1]; label: 5' Cy5)	Kd ([2]; label: 5' Cy5)	Kd ([3]; label: 5' Cy5)	Kd ([4]; label: 5' Cy5)	Kd ([5]; label: 5' Cy5)	Kd ([1]; label: 5' IRDye 800CW)	Kd ([2]; label: 5' IRDye 800CW)	Kd ([3]; label: 5' IRDye 800CW)	Kd ([4]; label: 5' IRDye 800CW)	Kd ([5]; label: 5' IRDye 800CW)
B1	74.5 nM	121 nM	123 nM	142 nM	39.5 nM	–	–	–	–	–
B2	98.3 nM	163 nM	106 nM	102 nM	49.8 nM	–	–	–	–	–
B3	–	–	–	–	–	252 nM	384 nM	320 nM	315 nM	162 nM
B4	–	–	–	–	–	136 nM	205 nM	301 nM	344 nM	103 nM
